Assay results from paper PMC8571072.
Values joined by “and” are separate entries in the source; they are usually repeats but may differ in a detail not shown here. Equal entries are not always repeated.

Molecular target: intelectin-2 (Xenopus laevis (endogenous in egg extract))
Assay: cryo-EM structure

stoichiometry N: 3 and 6
Substance: intelectin-2 (natural protein)
